In US20070231333A1, “ANTI-5T4 ANTIBODIES AND USES THEREOF” (Wyeth, priority 2006, published 2007):

What was measured:
[1] = target: T1, 5T4-expressing PC14PE6 cells (Homo sapiens, UniProt Q13641); assay: FACS binding to 5T4-expressing PC14PE6 cells; type: cell-based
T1 construct: endogenous in cells; host or cells: PC14PE6 cells
T1 sequence (Q13641 32-420): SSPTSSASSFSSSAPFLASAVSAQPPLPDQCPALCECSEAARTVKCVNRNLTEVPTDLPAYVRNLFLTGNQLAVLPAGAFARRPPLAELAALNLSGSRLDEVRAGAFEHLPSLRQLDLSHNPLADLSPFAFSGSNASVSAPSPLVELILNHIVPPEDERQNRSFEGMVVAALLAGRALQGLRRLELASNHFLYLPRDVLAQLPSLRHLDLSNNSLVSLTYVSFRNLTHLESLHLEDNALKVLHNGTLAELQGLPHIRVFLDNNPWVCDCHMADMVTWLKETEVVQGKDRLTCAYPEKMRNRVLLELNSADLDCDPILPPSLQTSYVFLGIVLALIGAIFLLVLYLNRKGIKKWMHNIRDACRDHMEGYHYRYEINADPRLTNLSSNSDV
Method: The ability of the H8, A1, A2, and A3 antibodies to bind cells expressing 5T4 antigen was assayed using fluorescence activated cell sorting (FACS) of PC14PE6 cells.

human 5T4 antigen = target: T2, human 5T4 antigen (Homo sapiens, UniProt Q13641); assay: BIACORE competition assay: second antibody after saturation with first antibody; type: binding
T2 sequence (Q13641 32-420): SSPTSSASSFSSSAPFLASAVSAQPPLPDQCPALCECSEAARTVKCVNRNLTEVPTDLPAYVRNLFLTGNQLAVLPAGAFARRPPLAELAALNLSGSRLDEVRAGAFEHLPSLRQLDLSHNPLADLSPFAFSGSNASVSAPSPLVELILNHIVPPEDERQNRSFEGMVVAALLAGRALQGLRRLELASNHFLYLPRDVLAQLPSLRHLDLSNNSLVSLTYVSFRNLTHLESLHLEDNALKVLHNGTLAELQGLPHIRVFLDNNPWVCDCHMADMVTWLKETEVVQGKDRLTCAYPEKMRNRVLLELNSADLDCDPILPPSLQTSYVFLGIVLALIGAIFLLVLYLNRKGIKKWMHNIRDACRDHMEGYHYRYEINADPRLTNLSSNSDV
Method: Epitope mapping of the H8, A1, A2, and A3 antibodies was also performed using BIACORE® using a CM5 chip with bound human 5T4 antigen. The chip was saturated with H8, A1, A2, or A3 antibody, and a first response was measured. The chip was then saturated with a second antibody from among the H8, A1, A2, and A3 antibodies, and a second response was measured. For multiple experiments, the chip was regenerated by dissociation of the bound antibodies in 10 mM glycine, pH 1.5, followed by a buffer wash. The percentages shown are the response units measured upon binding by a second antibody directly to the CM5 chip divided by the response units measured upon binding of the second antibody to a CM5 chip saturated with a first antibody.
The epitopes bound by the H8 and A3 antibodies are sterically close to each other such that the rate of association with antigen is decreased when binding of H8 is assayed in the presence of A3, and vice versa. Similar results were obtained using the chimeric and humanized H8, A1, A2, and A3 antibodies, which were prepared as described in Example 7 herein below.

- binding to 5T4-expressing PC14PE6 cells (in words) [1]: significantly lower
- Percentage Response of Second Antibody Following Saturation With First Antibody (human 5T4 antigen; 1st antibody A1): 98%
- Percentage Response of Second Antibody Following Saturation With First Antibody (human 5T4 antigen; 1st antibody A3): 94%
B1: A2: murine anti-5T4 monoclonal antibody (IgG2b heavy chain); VH residues 19-135 of SEQ ID NO:6, VL residues 23-130 of SEQ ID NO:8 (antibody, listed as Mus musculus, V domains shown)
VH: MEWRIFLFILSGTAGVHSQVQLQQSRPELVKPGASVKMSCKASGYTFTDYVISWVKQRTGQGLEWIGEIYPGSNSIYYNEKFKGRATLTADKSSSTAYMQLSSLTSEDSAVYFCAMGGNYGFDYWGQGTTLTVSS
VL: MDFQVQIFSFLLISASVIMSRGQIVLTQSPAIMSASLGERVTLTCTASSSVNSNYLHWYQQKPGSSPKLWIYSTSNLASGVPARFSGSGSGTSYSLTISSMEAEDAATYYCHQYHRSPLTFGAGTKLELK
modifications: (1)..(18) leader sequence; (19)..(135) heavy chain variable region; (44)..(53) CDR1; (68)..(84) CDR2; (117)..(124) CDR3; (1)..(22) leader sequence; (23)..(130) light chain variable region; (46)..(56) CDR1; (73)..(79) CDR2; (112)..(120) CDR3
